Experimental findings from patent publication US20110206701A1 (AbbVie / Abbott, published 2011) are described below.

The target of the experiment is T1, CS1 (CD2-subset 1) (human, UniProt Q9NQ25 23-335).
T1 construct: whole, on cells; In the immunohistochemistry the protein stood in formalin-fixed, paraffin-embedded tissue sections; also called SLAMF7; CRACC
Description: flow cytometry on normal blood NK and NK/T cells, directly conjugated antibody. (A flow cytometer gives signals particle by particle.)

B1: HuLuc63 (elotuzumab), humanized anti-CS1 antibody (antibody, V domains shown)
VH: EVQLVESGGGLVQPGGSLRLSCAASGFDFSRYWMSWVRQAPGKGLEWIGEINPDSSTINYAPSLKDKFIISRDNAKNSLYLQMNSLRAEDTAVYYCARPDGNYWYFDVWGQGTLVTVSS
VL: DIQMTQSPSSLSASVGDRVTITCKASQDVGIAVAWYQQKPGKVPKLLIYWASTRHTGVPDRFSGSGSGTDFTLTISSLQPEDVATYYCQQYSSYPYTFGQGTKVEIK
In the case of B1, the binding result is reported as “binds”.
